Laboratory results taken from CN112574312A (DONGDA BIOTECHNOLOGY SUZHOU CO LTD, dated 2021).
Blank lines part the entries; values can stand above or below the binder they belong to.

Key:
[1] = target: T1, 人源OX40的胞外区与人Fc融合蛋白(OX40-hFc) (human, UniProt P43489 29-214); assay: ELISA on coated OX40-hFc (Fig. 1)
T1 construct: extracellular domain; Coated on ELISA plates at 2 μg/mL; not shown: human Fc
T1 sequence (looked up): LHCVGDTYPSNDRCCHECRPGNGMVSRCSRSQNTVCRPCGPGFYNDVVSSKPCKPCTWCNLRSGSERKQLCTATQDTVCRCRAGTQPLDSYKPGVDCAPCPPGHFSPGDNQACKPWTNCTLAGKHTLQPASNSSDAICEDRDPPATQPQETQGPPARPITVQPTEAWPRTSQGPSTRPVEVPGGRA

人OX40 (Jurkat-OX40细胞) [2] = target: T2, 人OX40 (Jurkat-OX40细胞) (human, UniProt P43489 29-277); assay: FACS on Jurkat-OX40 cells (Fig. 3)
T2 construct: whole, on cells; also called OX40受体; CD134
T2 sequence (looked up): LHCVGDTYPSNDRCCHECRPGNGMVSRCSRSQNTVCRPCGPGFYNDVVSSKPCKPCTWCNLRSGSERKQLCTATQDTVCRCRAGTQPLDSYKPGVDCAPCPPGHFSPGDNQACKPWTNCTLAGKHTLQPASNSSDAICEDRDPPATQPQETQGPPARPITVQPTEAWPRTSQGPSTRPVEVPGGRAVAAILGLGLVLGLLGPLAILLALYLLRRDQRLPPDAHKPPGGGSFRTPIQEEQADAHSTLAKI

人OX40 (Jurkat-OX40细胞) [3] = target: T2, 人OX40 (Jurkat-OX40细胞); assay: FACS on Jurkat-OX40 cells (Fig. 9)
[4] = target: T3, 人源OX40的胞外区与小鼠Fc融合蛋白(OX40-ECD-mFc) (human, UniProt P43489 29-214); assay: ELISA on OX40-mFc (Fig. 7)
T3 construct: extracellular domain; also called OX40-mFc; not shown: mouse Fc
T3 sequence (looked up): T1 sequence (looked up)

B1: 抗人OX40鼠源抗体9G7 (antibody, V domains shown)
VH: EVKLVESGGGLVQPGGSLKLSCAASGFTFSDYYMYWVRQTPEKRLEWVAYISNGDISTYYPDTVKGRFTISRDNAKNTLYLQMSRLKSEDTAMYYCARDDGYSAWFAYWGQGTLVTVSA
VL: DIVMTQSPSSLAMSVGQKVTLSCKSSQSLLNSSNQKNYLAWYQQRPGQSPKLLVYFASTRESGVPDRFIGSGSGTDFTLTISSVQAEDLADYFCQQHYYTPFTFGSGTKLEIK
notes: Mouse hybridoma antibody purified by Protein A
binding result [1]: binds
binding result (人OX40 (Jurkat-OX40细胞) [2]): binds

B2: 抗人OX40人源化抗体3C9 (antibody, IgG1, V domains shown)
VH: QVQLVQSGAEVKKPGASVKVSCKASGYTFTSYIMHWVRQAPGQGLEWIGYINPYNGGSRYNDKFKVRATLTSDKSISTAYMELSRLRSDDTAVYYCARGDYDDGAWFGYWGQGTTVTVSS
VL: DIVMTQSPLSLPVTPGEPASISCKSSQSLLHSNGITYLFWYLQKPGQSPQLLIYRMSNRASGVPDRFSSSGSGTDFTLKISRVEAEDVGVYYCGQNLELPVTFGQGTKLEIK
notes: expressed in 293 cells; also called hu3C9; hu3C9-hIgG1
binding result (人OX40 (Jurkat-OX40细胞) [3]): binds
binding result [4]: binds

B3: 抗人OX40鼠源抗体17C1 (antibody, V domains shown)
VH: DVQLQESGPGLVKPSQSLSLTCTVTGYSITSDYAWNWIRQFPGNKLEWMGYITYSGFTRYNPSLKSRFSITRDTSKNQFFLQLNSVTTEDTATYYCVYPAWFAYWGQGTLVTVSA
VL: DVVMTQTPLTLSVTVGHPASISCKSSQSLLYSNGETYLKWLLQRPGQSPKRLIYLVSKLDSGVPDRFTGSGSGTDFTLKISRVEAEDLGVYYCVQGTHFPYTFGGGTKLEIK
notes: as for B1
binding result [1]: binds
binding result (人OX40 (Jurkat-OX40细胞) [2]): binds

B4: 抗人OX40人源化抗体15A7 (antibody, IgG1, V domains shown)
VH: QVQLQESGPGLVKPSETLSLTCTVSGYSITSDYWNWIRQPPGKGLEYMGYISYSGSTSYNPSLKSRITISRDTSKNQYSLKLSSVTAADTAVYYCARGGYYYGSSYPYYFDYWGQGTLVTVSS
VL: DIQMTQSPSTLSASVGDRVTITCKASQNVGTAVAWYQQKPGKAPKLLIYSPSNRYTGVPSRFSGSGSGTEFTLTISSLQPDDFATYYCQQYSSYRTFGGGTKVEIK
notes: expressed in 293 cells; also called hu15A7; hu15A7-hIgG1
binding result (人OX40 (Jurkat-OX40细胞) [3]): binds
binding result [4]: binds

B5: 抗人OX40鼠源抗体3F5 (antibody, V domains shown)
VH: EVQLVESGGDLVRPGGSLKLSCAASGFTFGSYAMSWVRQSPEKRLEWVAEISSGGIYTYYADIVTGRFTTSRDNAKNTLYLEMSSLRSEDTAMYYCVRDFDYRFAYWGQGTLVTVSA
VL: DIQMTQTTSSLSASLGDRVTISCKSSQEISGYLAWLQQKPDGTVKRLIYAASSLDVGVPSRFSGSRSGSDYSLTISNLEPEDIATYYCFQYASYPYTFGGGTKLEIK
notes: as for B1
binding result [1]: binds
binding result (人OX40 (Jurkat-OX40细胞) [2]): binds

B6: 抗人OX40鼠源抗体15A7 (antibody, V domains shown)
VH: QVQLQQSGPGLAKPSQTLSLTCSVTGYSITSDYWNWIRKFPGNKLEYMGYISYSGSTSYNPSLKSRISITRDTSKNQYYLQLSSVTTEDTATYYCARGGYYYGSSYPYYFDYWGQGTTLTVSS
VL: DIVMTQSTKFMSTTVGDRVSITCKASQNVGTAVAWYQQKPGQSPKLLIYSPSNRYTGVPDRFTGSGSGTDFTLTITNVQSEDLADYFCQQYSSYRTFGGGTKLEIK
notes: as for B1
binding result [1]: binds
binding result (人OX40 (Jurkat-OX40细胞) [2]): binds

B7: 抗人OX40鼠源抗体3C9 (antibody, V domains shown)
VH: DVQLQQSGPELVKPGASVRMSCKASGYTFTSYIMHWVKQKPGQGLEWIGYINPYNGGSRYNDKFKVKATLASDKSSSTAYMELSSLTSADSAVYYCARGDYDDGAWFGYWGQGTLVTVSA
VL: EIQMTQAAPSVPVTPGESVSISCKSSQSLLHSNGITYLFWYLQRPGQSPQLLIYRMSNRASGVPDRFSSSGSGTAFTLKISRVEADDVGVYYCGQNLELPVTFGAGTKVELK
notes: as for B1
binding result [1]: binds
binding result (人OX40 (Jurkat-OX40细胞) [2]): binds

Next, values leading:

binding result (人OX40 (Jurkat-OX40细胞) [3]): binds
binding result [4]: binds
B8: 抗人OX40人源化抗体1A2 (antibody, V domains shown)
VH: QVTLKESGPTLVKPTQTLTLTCTFSGFSLATSGVAVGWIRQPPGKALEWLAHIWWDDVKRYNPSLQGRLTITKDTSKNQVVLTMTNMDPVDTATYYCARMDWDGLAYWGQGTLVTVSS
VL: EIVLTQSPATLSLSPGERATLSCSVSSSISSSNLHWYQQKPGQAPRPWIYGTSNLATGIPARFSGSGSGTDYTLTISSLEPEDFAVYYCQQYSSYPFTFGGGTKVEIK
notes: expressed in 293 cells; also called hu1A2; 1A2人源化抗体

binding result [1]: binds
binding result (人OX40 (Jurkat-OX40细胞) [2]): binds
B9: 抗人OX40鼠源抗体1G4 (antibody, V domains shown)
VH: RVQLVQSGPELKKPGETVKISCKASGYTFTDYSIHWVKQAPGKGLKWMGWINTETGESTYADDFKGRFVFSSEISATTAYLQINSLKNEDTSTYFCAWVPPWYFDVWGAGTTVTVSS
VL: DIVMTQSTTSLSVSLGDRVTINCRTSQDITNYLNWYQQKPDGTIKLLIYYTSMLKSGVPSRFSGSGSGTDYSLTISHLEQDDIATYFCQQGNTPPLTFGAGTKLELK
notes: as for B1

binding result (人OX40 (Jurkat-OX40细胞) [3]): binds
binding result [4]: binds
B10: 抗人OX40人源化抗体3F5 (antibody, IgG1, V domains shown)
VH: EVQLVESGGGLVQPGGSLRLSCAASGFTFGSYAMSWVRQAPGKGLEWVAEISSGGIYTYYADIVTGRFTTSRDNAKNSLYLQMNSLRAEDTAVYYCVRDFDYRFAYWGQGTLVTVSS
VL: DIQMTQSPSSLSASVGDRVTITCKSSQEISGYLAWLQQKPGKAPKRLIYAASSLDVGVPSRFSGSRSGSEYTLTISSLQPEDFATYYCFQYASYPYTFGQGTKLEIK
notes: expressed in 293 cells; also called hu3F5; hu3F5-hIgG1

binding result [1]: binds
binding result (人OX40 (Jurkat-OX40细胞) [2]): binds
B11: 抗人OX40鼠源抗体3D9 (antibody, V domains shown)
VH: QVQLQESGPGLVAPSQSLSITCTVSGFSLTTYGITWVRQPPGKGLEWLGVIWDDGSTNYHSALISRLSISKNNYKSQVFLTLNSLQTDDTATYYCAKLLPYYFDSWGQGTTLTVSS
VL: DIVMTQSPSSLSASLGDRVTISCRASQDISNYLNWYQQKPNGTVKLLIYYTSRLLSGVPSRFSGSGSGTDYSLTISSLEQEDIATYFCQQGYTLPPTFGGGTKLEIK
notes: as for B1

binding result [1]: binds
binding result (人OX40 (Jurkat-OX40细胞) [2]): binds
B12: 抗人OX40鼠源抗体1A2 (antibody, IgG1, V domains shown)
VH: EVQLKESGPGIVQPSQSLSLTCTFSGFSLATSGVAVGWIRQPSGKGLEWLAHIWWDDVKRYNPSLQGRLTISKDTASSQVFLKISSVDTADTATYYCARMDWDGLAYWGAGTTVTVSA
VL: EIVLTQSPALMAASPGEKVTITCSVSSSISSSNLHWYQQKSETSPKPWIYGTSNLATGVPVRFSGSGSGTSYSLTISSMEAEDAATYYCQQYSSYPFTFGGGTKLEIK
notes: Mouse hybridoma antibody purified by Protein A; also called 1A2-mIgG1
